Measured values reported in IntAct's records for PubMed 21633354.

Molecular target: T1, cnd2_schpo cnd2 (UniProt Q9Y7R3)
T1 sequence: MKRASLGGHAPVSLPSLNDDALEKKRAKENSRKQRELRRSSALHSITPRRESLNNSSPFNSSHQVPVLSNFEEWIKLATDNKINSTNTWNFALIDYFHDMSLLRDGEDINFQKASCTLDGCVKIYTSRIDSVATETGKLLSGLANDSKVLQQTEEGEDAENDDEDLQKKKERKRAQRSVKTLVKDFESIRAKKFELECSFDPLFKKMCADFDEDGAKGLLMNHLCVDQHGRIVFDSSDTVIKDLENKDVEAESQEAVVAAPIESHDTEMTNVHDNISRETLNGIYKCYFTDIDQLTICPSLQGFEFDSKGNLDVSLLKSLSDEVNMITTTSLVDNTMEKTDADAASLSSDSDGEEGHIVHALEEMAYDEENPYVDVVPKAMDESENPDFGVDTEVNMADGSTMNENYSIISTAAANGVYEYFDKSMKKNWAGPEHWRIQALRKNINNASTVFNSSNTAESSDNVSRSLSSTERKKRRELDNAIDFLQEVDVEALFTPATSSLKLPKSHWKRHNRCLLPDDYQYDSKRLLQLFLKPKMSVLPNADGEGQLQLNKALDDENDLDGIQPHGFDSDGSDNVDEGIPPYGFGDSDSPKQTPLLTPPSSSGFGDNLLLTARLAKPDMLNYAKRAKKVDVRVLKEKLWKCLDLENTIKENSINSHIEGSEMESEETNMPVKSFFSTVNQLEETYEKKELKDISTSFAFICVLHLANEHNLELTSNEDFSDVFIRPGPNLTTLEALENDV

Substance | effect of a mutation on the interaction
Histone H2A-beta (Schizosaccharomyces pombe (strain ATCC 38366 / 972)) (from UniProt P04910) K5A;K9A;K14A;R19A;K22A | disrupting interaction strength
Histone H2A-beta (Schizosaccharomyces pombe (strain ATCC 38366 / 972)) (from UniProt P04910) K14A;R19A;K22A | disrupting interaction strength
Histone H2A-beta (Schizosaccharomyces pombe (strain ATCC 38366 / 972)) (from UniProt P04910) R19A | decreasing interaction
